Assay results as given in patent publication US9580731B2, “Methods of producing 7-carbon chemicals via c1 carbon chain elongation associated with coenzyme B synthesis” (INVISTA North America S.á r.l., priority 2012, dated 2017).

Experiments:
Assay type in all cases: biochemical
[1] = Carboxylate reductase activity assay, pimelate semialdehyde to heptanedial (NADPH consumption); conditions: 2 mM pimelate semialdehyde, enhanced by gene product of sfp, room temperature, 20 min, against empty vector control, FIG. 13
Experimental: The N-terminal His-tagged carboxylate reductase of SEQ ID NO 7 (see Example 4 and FIG. 7) was assayed using pimelate semialdehyde as substrate. The enzyme activity assay was performed in triplicate in a buffer composed of a final concentration of 50 mM HEPES buffer (pH=7.5), 2 mM pimelate semialdehyde, 10 mM MgCl2, 1 mM ATP and 1 mM NADPH. The enzyme activity assay reaction was initiated by adding purified carboxylate reductase and phosphopantetheine transferase or the empty vector control to the assay buffer containing the pimelate semialdehyde and then incubated at room temperature for 20 min. The consumption of NADPH was monitored by absorbance at 340 nm.

[2] = Carboxylate reductase activity assay, pimelate to pimelate semialdehyde (NADPH consumption); conditions: 2 mM pimelate, enhanced by gene product of sfp, room temperature, 20 min, against empty vector control, FIG. 10
Experimental: A sequence encoding a HIS-tag was added to the genes from Segniliparus rugosus and Segniliparus rotundus that encode the carboxylate reductases of SEQ ID NOs: 4 and 7, respectively (see FIG. 7), such that N-terminal HIS tagged carboxylate reductases could be produced. Each of the modified genes was cloned into a pET Duet expression vector along with a sfp gene encoding a HIS-tagged phosphopantetheine transferase from Bacillus subtilis, both under the T7 promoter. Each expression vector was transformed into a BL21[DE3] E. coli host and the resulting recombinant E. coli strains were cultivated at 37° C. in a 250 mL shake flask culture containing 50 mL LB media and antibiotic selection pressure, with shaking at 230 rpm. Each culture was induced overnight at 37° C. using an auto-induction media.
The pellet from each induced shake flask culture was harvested via centrifugation. Each pellet was resuspended and lysed via sonication, and the cell debris was separated from the supernatant via centrifugation. […]
Enzyme activity assays (i.e., from pimelate to pimelate semialdehyde) were performed in triplicate in a buffer composed of a final concentration of 50 mM HEPES buffer (pH=7.5), 2 mM pimelate, 10 mM MgCl2, 1 mM ATP and 1 mM NADPH. […] The consumption of NADPH was monitored by absorbance at 340 nm.

[3] = Carboxylate reductase activity assay, N7-acetyl-7-aminoheptanoate to N7-acetyl-7-aminoheptanal (NADPH consumption); conditions: 2 mM N7-acetyl-7-aminoheptanoate, enhanced by gene product of sfp, room temperature, 20 min, against empty vector control, FIG. 12
Experimental: The activity of each of the N-terminal His-tagged carboxylate reductases of SEQ ID NOs: 3, 6, and 7 (see Examples 4, and FIG. 7) for converting N7-acetyl-7-aminoheptanoate to N7-acetyl-7-aminoheptanal was assayed in triplicate in a buffer composed of a final concentration of 50 mM HEPES buffer (pH=7.5), 2 mM N7-acetyl-7-aminoheptanoate, 10 mM MgCl2, 1 mM ATP, and 1 mM NADPH. The assays were initiated by adding purified carboxylate reductase and phosphopantetheine transferase or the empty vector control to the assay buffer containing the N7-acetyl-7-aminoheptanoate then incubated at room temperature for 20 min. The consumption of NADPH was monitored by absorbance at 340 nm.

B1: SEQ ID NO 7: Segniliparus rotundus carboxylate reductase, Genbank Accession No. ADG98140.1 (protein, listed as Segniliparus rotundus)
chain: MTQSHTQGPQASAAHSRLARRAAELLATDPQAAATLPDPEVVRQATRPGLRLAERVDAILSGYADRPALGQRSFQTVKDPITGRSSVELLPTFDTITYRELRERATAIASDLAHHPQAPAKPGDFLASIGFISVDYVAIDIAGVFAGLTAVPLQTGATLATLTAITAETAPTLFAASIEHLPTAVDAVLATPSVRRLLVFDYRAGSDEDREAVEAAKRKIADAGSSVLVDVLDEVIARGKSAPKAPLPPATDAGDDSLSLLIYTSGSTGTPKGAMYPERNVAHFWGGVWAAAFDEDAAPPVPAINITFLPLSHVASRLSLMPTLARGGLMHFVAKSDLSTLFEDLKLARPTNLFLVPRVVEMLYQHYQSELDRRGVQDGTREAEAVKDDLRTGLLGGRILTAGFGSAPLSAELAGFIESLLQIHLVDGYGSTEAGPVWRDGYLVKPPVTDYKLIDVPELGYFSTDSPHPRGELAIKTQTILPGYYKRPETTAEVFDEDGFYLTGDVVAQIGPEQFAYVDRRKNVLKLSQGEFVTLAKLEAAYSSSPLVRQLFVYGSSERSYLLAVIVPTPDALKKFGVGEAAKAALGESLQKIARDEGLQSYEVPRDFIIETDPFTVENGLLSDARKSLRPKLKEHYGERLEAMYKELADGQANELRDIRRGVQQRPTLETVRRAAAAMLGASAAEIKPDAHFTDLGGDSLSALTFSNFLHDLFEVDVPVGVIVSAANTLGSVAEHIDAQLAGGRARPTFATVHGKGSTTIKASDLTLDKFIDEQTLEAAKHLPKPADPPRTVLLTGANGWLGRFLALEWLERLAPAGGKLITIVRGKDAAQAKARLDAAYESGDPKLAGHYQDLAATTLEVLAGDFSEPRLGLDEATWNRLADEVDFISHPGALVNHVLPYNQLFGPNVAGVAEIIKLAITTRIKPVTYLSTVAVAAGVEPSALDEDGDIRTVSAERSVDEGYANGYGNSKWGGEVLLREAHDRTGLPVRVFRSDMILAHQKYTGQVNATDQFTRLVQSLLATGLAPKSFYELDAQGNRQRAHYDGIPVDFTAESITTLGGDGLEGYRSYNVFNPHRDGVGLDEFVDWLIEAGHPITRIDDYDQWLSRFETSLRGLPESKRQASVLPLLHAFARPGPAVDGSPFRNTVFRTDVQKAKIGAEHDIPHLGKALVLKYADDIKQLGLL
- carboxylate reductase activity for converting pimelate semialdehyde to heptanedial (NADPH consumption, absorbance at 340 nm) [1]: accepted pimelate semialdehyde as substrate
- carboxylate reductase activity for converting pimelate to pimelate semialdehyde (NADPH consumption, absorbance at 340 nm) [2]: accepted pimelate as substrate
- carboxylate reductase activity for converting N7-acetyl-7-aminoheptanoate to N7-acetyl-7-aminoheptanal (NADPH consumption, absorbance at 340 nm) [3]: accepted N7-acetyl-7-aminoheptanoate as substrate
